Data from patent US20250034594A1, “RNA-GUIDED GENOME RECOMBINEERING AT KILOBASE SCALE” (THE BOARD OF TRUSTEES OF THE LELAND STANFORD JUNIOR …, priority 2021, published 2025).

How the values were obtained:
Assay type in all cases: cell-based
[1] = test system: gene editing with Cas9; experiment: Screen of 322 new SSAP proteins, gene editing activity with Cas9 (Table 5); parameters: Cas9 with SSAP activity: scale not given here
Summary of the method: (§1)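 The 322 SSAP proteins were found in sequence data and then synthesized. Each was screened for gene editing activity when paired with Cas9 and with dCas9.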

[2] = test system: gene editing with Cas9 and dCas9; experiment: Screen of 322 new SSAP proteins, activity across all experiments (Cas9 and dCas9, Table 5); parameters: scale not given here
Summary of the method: as §1

[3] = test system: gene editing with dCas9; experiment: Screen of 322 new SSAP proteins, gene editing activity with dCas9 (Table 5); parameters: dCas9 with SSAP activity: scale not given here
Summary of the method: as §1

| Molecule | Cas9 with SSAP activity [1] | Cas9 with SSAP activity (normalized) [1] | Activity across all experiments [2] | dCas9 with SSAP activity [3] | dCas9 with SSAP activity (normalized) [3] |
| --- | --- | --- | --- | --- | --- |
| SSAP_58: SEQ ID NO: 227; Pirellula sp. SH-Sr6A (protein, listed as Pirellula sp.) SEATKEAKPETAIAKKPNGIKDWLKSDALKTQIASVAPKHMAPERVMRIALNAVSRTPKLADCTPESFMRCLLDLSSWGLEPDGRHAHLIPYGTECTLVLDYKGLVTLAYRSGWVKKIHADVVFEGDIFVYSLGTVCQHIPWEFRDDANKPEHKGHFRAAYCVVTMADGIEKHEVMTASEIDAIKAKSRSGNSGPWKDHYTEMAKKTVYRRASKWLPLSPEQADAMERDDDRIIDAVSVAVTQRLSKAAMPLIGANETGDTE | −1.710 | −0.437 | −3.018 | −4.326 | −0.647 |
| SSAP_277: SEQ ID NO: 446; Nocardia terpenica (protein, listed as Nocardia terpenica) SSIAAAAESAEVTPASIINKYRDDIATVLPPKLRERIDRWIRLAIGAVNSNPELISRVRADQGASMMQALMKCAALGHEPGSGLFHLVPKGSRIEGWEDYKGILQRIDRSGVYARTVIGVVYANDEYSYDQNVDERPRHVRATGDRGEPISSYAYAVYPSGAITTVAEATPEQIASSKSKARGADNAASPWRAPGAPMHRKVAVRLLEKHVATSAEDRREPISRSAANDVVIDATADYYQEP | −1.480 | −0.437 | −2.958 | −4.435 | −0.734 |
| SSAP_232: SEQ ID NO: 401; Lactococcus fujiensis JCM 16395 (protein, listed as Lactococcus fujiensis) KSAPVQARFQEVLGKKSSGFVSSLLTVVNNNNLLKRATPDSIMTAAMKAATLDLPIEPSLGFAYIIPYGQEAQFQIGYKGLIQLALRSGQITGLNSGIVYKSQFISYDPLFEELEIDFMQPEDEVVGYFASMKLSNGFMKVVYWTKARVENHKKRFSKAGAKSPWATDFDAMAQKTVLKAMISKFAPLSQEMQIAVIADNESETLEPKDVTPEQPLISIDEPKENENSQSQISIPEDQAPQQENEEFVEELFPVGQA | −1.056 | −0.259 | −2.757 | −4.457 | −0.721 |
| SSAP_291: SEQ ID NO: 460; Nocardia pseudobrasiliensis (protein, listed as Nocardia pseudobrasiliensis) SSIANAANASELTPASIVNRYRDDIAAVLPPKLQARIDRWLRLAIGAVNSNADLVDRVRADQGASMMQTLMKCAALGHEPGSGLFHLVPKGPRIEGWEDYKGVLQRIDRSGVYARVVVEVVHANDDYAYDPNLDDRPQHKRAAADRGEPVSAYAYAVYPNGAVTAVAEATPELIAASKAKARGADNASSPWRAPGAPMHRKVAIRQLEKFVATSAEDMREVAVRNAAPDVEDAPADYYQEP | −4.531 | −1.341 | −4.494 | −4.458 | −1.272 |
| SSAP_72: SEQ ID NO: 241 (protein) ATNSSLKNQLSKKENVTIGNTMQGLLNNPKMKKRFEEILDKKAPQYMSSILNLYNGDTSLQKCEPMSVLSSSMIAATMDLPVDKNLGYAWIVPYKNKAQFQMGYKGYIQLALRTGQYKHINAIEIHEGELVNWNPLTEELEIDFTKKESDKIIGYAGYFELLNGFKKSTYWTKTQIENHRKKFSKSDYGWNKDFDAMAIKTVIRNMLSKWGILSIEMQNAYTADENIIKDSFIDDSENVSANIEDLVEADYTVNQDSLESKEEFEGTPLE | 0.397 | 0.895 | 0.551 | 0.705 | 1.131 |
| SSAP_82: SEQ ID NO: 251 (protein) ENEVMTQDQAYEVASPFGSSENFQKLFDIGKMFASSSLVPDRYRGKPMDCTIAVDMANRMGVSPMMVMQQLYVVKGNPQWSGQACMSLIRGSSEYKNVRPVYTGKKGEDSWGCYIEAEKKKTGEIVKGTEVTIAMAKAEGWYSKKDKYGNETSKWQTMPELMLAYRAAAFFARVYIPNALMGCAVEGEAEDIMKRAITAEDPFKEDAK | −4.284 | −0.776 | −4.391 | −4.498 | −0.873 |
| SSAP_103: SEQ ID NO: 272; Zymobacter palmae (protein, listed as Zymobacter palmae) TNTVQQQAPQQDQLAQQLQQASGNTPQKKPMPSTIQGMLKDDRFKTQIARALPKHVTPERIMRIALTEINKTPKLKECDPIGLFGSIVQSAQLGLELGGALGHAYLVPYGKQAQFIIGYRGMIDLARRSGQMVSLQAHTVHENDEFNFEYGLNENLRHVPARGERGPMIAVYAVAKLVGGGHQIEVMWKEDVDAVRKSSKAGGSGPWRDHYEEMAKKTAIRRLFKYLPVSVEMQRAVSLDEQAEEGVQDNNVFDGDYTVAEH | −0.682 | −0.190 | −2.611 | −4.540 | −0.705 |
| SSAP_65: SEQ ID NO: 234 (protein) TQDLATAIADQQPAQRRTAFDLVESMRGELHKALPEHASIDNFLRLALTELKMNPQLGNCSGESLLGALMTAARVGLEVGGPLGQFYLTPRRLKRDGWAVVPIVGYRGLITLARRAGVGQVNAVVVHEGDTFREGASSERGFFFDWEPAVERGKPVGALAAARLAGGDVQHRYLSLAEVHERRDRGGFKDGSNSPWATDYDAMVRKTALRALVPLLPQSTALSFAVQADEQVQRYDAGDIDIPALDETDTEDTK | 0.198 | 0.190 | −2.185 | −4.569 | −0.746 |
| SSAP_106: SEQ ID NO: 275; Tepidibacillus fermentans (protein, Tepidibacillus fermentans) ATNEKVKTQLANRANGQAPTPTPEQTIAAYMKKMAPRFAEVLPKHMDIDRMTRIALTTIRTNPKLLEASVPSLLGAIMQAAQLGLEPGLVGHCYLVPFKNGKTGQTEVQFIIGYKGMIDLARRSGNIESIYAHAVYENDTFEYEYGLHPKLVHKPAMTDRGEFIGAYAVAHFKDGGYQFEFMPKEEIEKRRNRSKTANGGPWVTDYEEMAKKTVVRHMWKYLPISIEIQQAAAQDEVIRKDVTSEPEFVDDVIDISTEIEEQSVEVEGEEAQ | −5.574 | −1.211 | −5.073 | −4.572 | −0.829 |
| SSAP_275: SEQ ID NO: 444; Paenibacillus pinihumi (protein, listed as Paenibacillus pinihumi) ADANKLLVINEKLIKLIESKQDAMPKSFNKTRFIQNCMAVLQDTDEIDKCDATSVARTLLKGAFLGLDFMNKECYPIIYGGKCTFQTDYKGEIKLAQKYSVRPVLNIYAELVREGDFFLKEVKDGQRTIQHKPPEGFNDGKVIGAFAIVLYKDGGMDCESMSVAEIETTRKNYSKQANGPSWTKSPGEMQKKTVLRRLCKTIQLDFDTIEAKEAFEDGGDFDFKQDPKPQQQSPFDKNATVVDAEYEEVEEEDQSESAT | −1.206 | −0.494 | −2.900 | −4.593 | −0.870 |
| SSAP_97: SEQ ID NO: 266; Gilliamella apicola (protein, listed as Gilliamella apicola) SEQNQPPIAKSDLEKTQLTNQDKKPATLAELVNSPKIKNQLAMALPKHMNPDRMARIVTTEIRKTPALADSNIQSFLGAVVQCSQLGLEPGGALGHAYLLPFGNGKAKDGKSNVQLIIGYRGMIDLARRSGQIISISARTVREGDDFHYEYGLNEDLKHTPKADESAPITYVYAVARLKDGGSQFEVMTFNQIESVRKQSKAGDKGPWITHWEEMAKKTVIRRLFKYLPVSIEIQQAVILDEKAEAGISQDNEMILDADFSVVEA | −5.948 | −1.267 | −5.290 | −4.633 | −0.842 |
| SSAP_130: SEQ ID NO: 299; Peptoanaerobacter stomatis (protein, listed as Peptoanaerobacter stomatis) GAKELIQKKQENKQISPTSNMNMLLQSMAGAIKKALPAQINSERFQRVALTAFSSNQKLQQCDPISFLAAMMQSAQLGLEPNTPLGQAYLIPYGKQVQFQVGYKGLLELAQRSGQFKSIYSHEVRENDEFEMEYGLNQKLVHKPNLKQERGEVIGYYACYHLTNGGESMFFMTKDEIINFGKSKSKTFNNGPWQTDFDAMAKKTVLKQLLKYAPLSIESQKFMSMDETVKSDISANMDEINNDTVDFEVDIQTGEVINDIVVENTNEDEAN | −0.778 | −0.800 | −2.714 | −4.650 | −0.774 |
| SSAP_266: SEQ ID NO: 435; Bacteroides stercoris (protein, listed as Bacteroides stercoris) STITTIPQLKSMLANDNVKARFKEILGKKAPGFISSIVAVANSNTLLQKAEPQSIMNAAVVAATLDLPINPNLGFAYVVPYGNQAQFQMGWRGFVQLAMRSGQYKTINVNEIYEGEIKKSNRFTGEYEFGERASDKIVGYMAYFSLINGFEKFLYMSKEDCEKHGRKFSQTYKRGTGIWSTDFDSMAKKTVLKMLLSKFGILSIEMQRAQTFDQAIIKDNLAETDIDEAEVSYNDNPDNEEARRNAMKEALQEAEVVDENTGELFNTETK | −6.013 | −1.700 | −5.345 | −4.677 | −0.799 |
